Measured values as given in paper PMC4425550 (Nature medicine, 2015).
Where no end group is shown, it is not given here. The star is where a group is joined. Biotin = O=C1N[C@H]2[C@H](CS[C@H]2CCCCC(=O)*)N1

Assays:
SPHK1/2 = assay: T cell transmigration with SPHK1/2 inhibitor; type: cell-based, human; details: 5 μM on endothelial cells, 30 min 37°C, washed, n=3
S1P receptor = assay: T cell transmigration with S1P receptor antagonist; type: cell-based, human; details: W146 10 μM, 30 min, washed; n=3–7
SPHK1 = assay: T cell transmigration with SPHK1 specific inhibitor; type: cell-based, human; details: 5 μM on endothelial cells, 30 min 37°C, washed, n=3
αLβ2 (LFA-1) = assay: LFA-1 activation epitope; type: cell-based, human; details: S1P 10 µM after CXCL10 80 ng/ml, n=4
[1] = system: S1P receptor on T cells; stimulated endothelial cells; assay: T cell transmigration with exogenous S1P, B cell depleted PBL; type: cell-based, human
[2] = system: S1PR1 on memory T cells (CD3+CD45RO+); assay: S1PR1 surface expression on memory T cells on ICAM-1; type: cell-based, human
B cells = details: T1D and rheumatoid arthritis; cited from earlier work
[3] = system: TNF-α&IFN-γ treated HUVEC; assay: PBL trans-endothelial migration, static, HUVEC; type: cell-based, human
recombinant CDH15-Fc = target: T1, recombinant CDH15-Fc (UniProt P55291 61-606); assay: SPR
T1 sequence (looked up): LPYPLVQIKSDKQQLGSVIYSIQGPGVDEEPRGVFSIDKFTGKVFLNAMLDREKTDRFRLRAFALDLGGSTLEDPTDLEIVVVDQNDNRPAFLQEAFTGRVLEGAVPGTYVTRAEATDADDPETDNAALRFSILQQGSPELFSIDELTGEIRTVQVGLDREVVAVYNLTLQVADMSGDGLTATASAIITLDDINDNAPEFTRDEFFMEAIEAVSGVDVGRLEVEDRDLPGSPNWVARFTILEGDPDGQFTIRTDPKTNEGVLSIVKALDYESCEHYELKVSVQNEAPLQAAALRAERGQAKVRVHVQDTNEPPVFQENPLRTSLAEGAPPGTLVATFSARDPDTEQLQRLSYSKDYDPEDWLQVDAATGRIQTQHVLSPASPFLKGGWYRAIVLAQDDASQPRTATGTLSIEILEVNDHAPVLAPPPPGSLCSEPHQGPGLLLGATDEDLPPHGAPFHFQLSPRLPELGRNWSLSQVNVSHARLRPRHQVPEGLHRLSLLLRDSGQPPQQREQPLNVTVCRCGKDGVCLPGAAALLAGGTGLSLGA

[4] = system: endothelial cells (TNF-α and IFN-γ stimulated); type: cell-based, human
[5] = system: lymphocytes from individuals with rheumatoid arthritis; endothelial cells; assay: Ex vivo T cell transmigration, individuals with rheumatoid arthritis; type: cell-based, human; details: adiponectin 15 μg/ml or PEPITEM 10 ng/ml, n=7–8
[6] = system: TNF-α&IFN-γ stimulated HUVEC; assay: Gene expression of adhesion molecules and chemokines in HUVEC, real-time PCR; type: cell-based, human; details: TNF-α and IFN-γ stimulated endothelial cells
[7] = system: TNF-α&IFN-γ stimulated endothelial cells; assay: PBL adhesion; type: cell-based, human; details: adiponectin or PEPITEM
[8] = system: lymphocytes from individuals with T1D; endothelial cells; assay: Ex vivo T cell transmigration, individuals with type-1-diabetes; details: adiponectin 15 μg/ml or PEPITEM 10 ng/ml, n=9–22
[9] = system: TNF-α&IFN-γ treated HUVEC; assay: PBL trans-endothelial migration under flow; details: adiponectin pre-treated PBL, n=6
[10] = system: α4β1, αLβ2, CXCR3, DP-2 on PBL; assay: Expression/function of integrins, CXCR3 and DP-2 on PBL, flow cytometry; type: cell-based, human; details: adiponectin 15 μg/ml, n=3
HDMEC = assay: PBL transmigration across HDMEC, static; type: cell-based, human; details: TNF-α&IFN-γ stimulated HDMEC, n=3–4

CCCCCCCCCCCCC/C=C/[C@@H](O)[C@H](CO)N(C)C [N,N-Dimethylsphingosine]
ability of PEPITEM to inhibit T cell migration, SPHK1/2 inhibitor (SPHK1/2): abolished the ability of PEPITEM to inhibit T cell migration

CCCCCCc1cccc(NC(=O)[C@H](N)CCP(=O)(O)O)c1 [W146]
T cell migration in the presence of adiponectin and PEPITEM with S1P receptor antagonist (S1P receptor): released T cells from the inhibitory effects of both adiponectin and PEPITEM

CCCCCCCCCCCCCC#CC(=O)[C@@H]1COC(C)(C)N1C(=O)OC(C)(C)C [SPHK1 inhibitor, 2,2-dimethyl-4S-(1-oxo-2-hexadecyn-1-yl)-1,1-dimethylester-3-oxazolidinecarboxylic acid]
ability of PEPITEM to inhibit T cell migration, SPHK1 inhibitor (SPHK1): abolished the ability of PEPITEM to inhibit T cell migration

CCCCCCCCCCCCC/C=C/[C@@H](O)[C@@H](N)COP(=O)(O)O [S1P, Sphingosine-1-phosphate]
affinity of LFA-1, binding to ICAM-1 (αLβ2 (LFA-1)): down-regulates the affinity
T cell migration on adding exogenous S1P ([1]; S1P 0.0001 to 100 μM, 30 min, purified T cells / B cell depleted PBL, n=3–6): mimicked dose-dependently
T cell transmigration at total circulating S1P concentration ([1]; S1P ≈0.2 μM): inhibited T cell transmigration efficiently
surface S1PR1 in the presence of exogenous S1P ([2]; CXCL10 80 ng/ml + S1P 10 μM, n=4): high expression was maintained

CXCL10: chemokine
surface S1PR1 on memory T cells on ICAM-1 ([2]; CXCL10 80 ng/ml, n=6): rapid up-regulation of surface S1PR1

rituximab: monoclonal antibody, B cell depletion
clinical effect of B cell depletion (B cells): beneficial effects

PEPITEM with a biotin conjugate on the N-terminus: PEPITEM with a biotin conjugate on the N-terminus (Biotin-SVTEQGAELSNEER)
efficacy in functional migration assay [3]: full efficacy

Biotin-SVTEQGAELSNEER [N-terminus biotinylated PEPITEM (PEPtide Inhibitor of Trans-Endothelial Migration)]
Kd (recombinant CDH15-Fc): 109 µM

B1: adiponectin: circulating adipokine (protein, UniProt Q15848 19-244, looked up)
Adiponectin: ETTTQGPGVLLPLPKGACTGWMAGIPGHPGHNGAPGRDGRDGTPGEKGEKGDPGLIGPKGDIGETGVPGAEGPRGFPGIQGRKGEPGEGAYVYRSAFSVGLETYVTIPNMPIRFTKIFYNQQNHYDGSTGKFHCNIPGLYYFAYHITVYMKDVKVSLFKKDKAMLFTYDQYQENNVDQASGSVLLHLEVGDQVWLQVYGEGERNGLYADNDNDSTFTGFLLYHDTN
T cell migration with supernatants from adiponectin stimulated B cells ([4]; B cells 100,000, adiponectin 15 μg/ml 1 h): as effective as addition of B cells themselves
T cell migration after depleting B cells from PBL ([4]; adiponectin treated, n=3–7): T cells were released from the inhibitory effects of adiponectin
T cell migration after adding back purified B cells ([4]; adiponectin, n=3–7): could reconstitute the adiponectin-dependent inhibition of T cell migration
T cell migration, individuals with rheumatoid arthritis [5]: no longer an inhibition of T cell migration
gene expression of adhesion molecules and chemokines [6]: did not modulate
PBL trans-endothelial migration ([3]; TNF-α and IFN-γ stimulated HUVEC, static): dose-dependently inhibited
EC50 for inhibition of PBL trans-endothelial migration (mass concentration) ([3]; adiponectin, PBL pre-treated 1 h and washed, TNF-α and IFN-γ stimulated, static): 0.94 mg/L
firm adhesion of PBL (surface adherent cells) [7]: more cells were firmly adherent to the apical surface of the endothelium
T cell migration, individuals with T1D [8]: no longer an inhibition of T cell migration
PBL transmigration under flow [9]: effects of adiponectin on PBL migration were seen
expression and/or function of integrins (α4β1, αLβ2), CXCR3, DP-2 on PBL [10]: did not alter
PBL transmigration on HDMEC (HDMEC): evident
